FireProtDB (doi:10.1006/jmbi.1993.1508)

Conditions: Bacillus amyloliquefaciens; pH 6.3; 25 °C; Urea; Fluorescence; MES 50 mM; reversible: yes; whole UniProt chain shown

B1: Ribonuclease wild type, P00648 (protein)
chain: MMKMEGIALKKRLSWISVCLLVLVSAAGMLFSTAAKTETSSHKAHTEAQVINTFDGVADYLQTYHKLPDNYITKSEAQALGWVASKGNLADVAPGKSIGGDIFSNREGKLPGKSGRTWREADINYTSGFRNSDRILYSSDWLIYKTTDHYQTFTKIR
  denaturant m value: 1.92 kcal/mol/M
  denaturant midpoint (higher = more stable): 4.58 M
  unfolding free energy: 8.82 kcal/mol
